The text below walks through data of patent publication US20220187308A1 (published 2022).

For one test, the target named is T1, GC-hIgA (human).
T1 construct: Recombinant human IgA used as the antigen in the Biacore A100 screen of step (22-3); also called recombinant human IgA GC-hIgA; human IgA
The experiment in a line: SPR (Biacore A100), antibody from culture supernatant on a protein A chip, GC-hIgA as analyte, 25 C, 1.2 mM CaCl2, pH 7.4 (step 22-3). Here is the method: The culture supernatant obtained by the above method was used to analyze GC-hIgA-binding ability using Biacore A100. Antibodies in the culture supernatant were immobilized onto Sensor chip CM5 (GE Healthcare Bio-Sciences Corp.) with protein A (Invitrogen Corp.) immobilized thereon in an appropriate amount by the amine coupling method. A buffer solution containing 20 mM ACES, 150 mM NaCl, 0.05% (w/v) Tween 20, and 1.2 mM CaCl₂) (pH 7.4) were used as a running buffer. GC-hIgA was also diluted with this buffer. Assay was all carried out at 25° C.
(In general: Surface plasmon resonance follows binding to a sensor surface in real time, without labels.)

In test [1] the target is T2, biotinylated human HMGB1-Avi (human, UniProt P09429 2-215, biotin added at the C-terminal Avitag sequence by biotin ligase (BirA)).
T2 construct: also called biotin-labeled hHMGB1; hHMGB1-Avitag
T2 sequence: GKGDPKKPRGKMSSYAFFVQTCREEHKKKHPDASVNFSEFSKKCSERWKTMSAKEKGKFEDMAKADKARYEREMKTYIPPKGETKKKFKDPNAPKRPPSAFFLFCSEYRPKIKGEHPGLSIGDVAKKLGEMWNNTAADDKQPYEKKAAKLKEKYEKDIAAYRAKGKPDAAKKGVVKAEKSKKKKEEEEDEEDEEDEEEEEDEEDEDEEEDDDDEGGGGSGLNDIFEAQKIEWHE
The experiment in a line: phage ELISA (Fab displayed on phage) on biotin-labeled hHMGB1 on a StreptaWell plate, pH 7.6 against pH 5.5. On the procedure:
A phage-containing culture supernatant was collected by phage culture according to a conventional method (Methods Mol. Biol. (2002) 178, 133-145) from each single colony of the E. coli obtained after the third and fourth rounds of panning carried out in the step (26-2). After addition of BSA and CaCl₂) (final concentration: 4% BSA and 1.2 mM calcium ion), the phage-containing culture supernatant was subjected to ELISA by the following procedures: StreptaWell 96 microtiter plate (F. Hoffmann-La Roche Ltd.) was coated for 4 hours or longer with 100 μL of PBS containing biotin-labeled hHMGB1. Each well of the plate was washed with PBST to remove unbound antigens. Then, the well was blocked with 250 μL of 4% BSA-TBS (50 mM Tris, 300 mM NaCl, 2.5 mM CaCl₂), and 4% BSA) for 1 hour or longer. […] Each well was washed with 1.2 mM CaCl₂)/TBST (pH 7.6), and 1.2 mM CaCl₂)/TBS (pH 7.6) or 1.2 mM CaCl₂)/150 mM NaCl/50 mM MES (pH 5.5) was added thereto. The plate was left standing at 37° C. for 30 minutes for incubation. After washing with 1.2 mM CaCl₂)/TBST (pH 7.6), HRP-conjugated anti-M13 antibodies (Amersham Pharmacia Biotech Inc.) diluted with 4% BSA-TBS were added to each well. The plate was incubated for 1 hour. After washing with 1.2 mM CaCl₂)/TBST (pH 7.6), TMB single solution (Invitrogen Corp.) was added to the well. The chromogenic reaction of the solution in each well was terminated by the addition of sulfuric acid. Then, the developed color was assayed on the basis of absorbance at 450 nm.

The next test addresses T3, human HMGB1 (human, UniProt P09429 2-215).
T3 construct: Expressed in FreeStyle 293 cells and purified; analyte in the Biacore assay of step (26-5); also called hHMGB1; recombinant human HMGB1
T3 sequence: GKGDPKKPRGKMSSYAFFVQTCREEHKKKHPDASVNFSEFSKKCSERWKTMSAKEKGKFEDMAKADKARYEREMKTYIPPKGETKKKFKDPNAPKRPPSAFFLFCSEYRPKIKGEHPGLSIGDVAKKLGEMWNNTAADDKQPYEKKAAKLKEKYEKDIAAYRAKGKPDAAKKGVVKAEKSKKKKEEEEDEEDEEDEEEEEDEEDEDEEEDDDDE
The experiment in a line: SPR (Biacore T100), antibody captured via protein A/G on CM4, hHMGB1 as analyte, 25 C, 1.2 mM CaCl2, pH 7.4 against pH 5.8. Here is the method: In order to judge the pH dependence of hHMGB1-binding activity of the antibodies HM_3_2_R_017 (heavy chain: SEQ ID NO: 131 and light chain: SEQ ID NO: 132), HM_3_2_R_054 (heavy chain: SEQ ID NO: 133 and light chain: SEQ ID NO: 134), and HM_4_1_R_001 (heavy chain: SEQ ID NO: 135 and light chain: SEQ ID NO: 136) obtained in the step (26-4), these antibodies were analyzed for their interaction with hHMGB1 using Biacore T100 (GE Healthcare Bio-Sciences Corp.). The interaction of antigen-antibody reaction was analyzed in solutions of pH 7.4 and pH 5.8 as neutral pH and acidic pH conditions, respectively. Approximately of 200 RU of each antibody of interest was captured onto Sensor chip CM4 (GE Healthcare Bio-Sciences Corp.) with protein A/G (Pierce Biotechnology Inc.) immobilized thereon in an appropriate amount by the amine coupling method. Two types of buffer solutions were used as running buffers: 20 mM ACES, 150 mM NaCl, 0.05% (w/v) Tween 20, and 1.2 mM CaCl₂) (pH 7.4); and 20 mM ACES, 150 mM NaCl, 0.05% (w/v) Tween 20, and 1.2 mM CaCl₂) (pH 5.8). hHMGB1 was also diluted with each of these buffers. Assay was all carried out at 25° C.
In the analysis on the interaction of antigen-antibody reaction using the HM_3_2_R_017 antibody, the HM_3_2_R_054 antibody, and the HM_4_1_R_001 antibody, the diluted hHMGB1 solution or a blank running buffer was injected at a flow rate of 10 μL/min for 60 seconds to […] onto the sensor chip. The HM_3_2_R_017 antibody, the HM_3_2_R_054 antibody, and the HM_4_1_R_001 antibody were interacted with hHMGB1. Then, 10 mM glycine-HCl (pH 1.5) was injected thereto at a flow rate of 30 μL/min for 30 seconds to regenerate the sensor chip.

For test [2], the target named is T4, biotinylated human IgA-Fc (human, UniProt P01876 123-333, biotin added at the C-terminal Avitag sequence by biotin ligase (BirA)).
T4 construct: also called biotin-labeled hIgA-Fc
The experiment in a line: phage ELISA (Fab displayed on phage) on biotin-labeled IgA-Fc, 1.2 mM CaCl2 against 1 mM EDTA (step 22-4). Here is the method: Each well of the plate was washed with PBST to remove unbound antigens. […] The plate was left standing at 37° C. for 30 minutes for incubation. […] The plate was incubated for 1 hour. […] The chromogenic reaction of the solution in each well was terminated by the addition of sulfuric acid. Then, the developed color was assayed on the basis of absorbance at 450 nm.

Test [3] addresses T5, biotin-labeled recombinant human glypican 3 (human, UniProt P51654 25-563, biotin-labeled using EZ-Link NHS-PEG4-Biotin).
T5 construct: also called GPC3; biotin-labeled GPC3
The experiment in a line: phage ELISA (Fab displayed on phage) on biotin-labeled GPC3, 1.2 mM CaCl2 against 1 mM EDTA. Here is the method:
The plate was left standing at 37° C. for 30 minutes for incubation. […] The plate was incubated for 1 hour. […] The chromogenic reaction of the solution in each well was terminated by the addition of sulfuric acid. Then, the developed color was assayed on the basis of absorbance at 450 nm.
(In an ELISA, binding on a coated surface is turned into a signal by an enzyme label.)

The target of test [4] is T4, biotinylated human IgA-Fc. The experiment in a line: phage ELISA (Fab displayed on phage) on biotin-labeled IgA-Fc, 1.2 mM CaCl2 against 1 mM EDTA (step 22-6).

Positions count from the first letter of the chain named.

T4 sequence (P01876 other isoform, or with tags, fused parts or gaps limits assumed): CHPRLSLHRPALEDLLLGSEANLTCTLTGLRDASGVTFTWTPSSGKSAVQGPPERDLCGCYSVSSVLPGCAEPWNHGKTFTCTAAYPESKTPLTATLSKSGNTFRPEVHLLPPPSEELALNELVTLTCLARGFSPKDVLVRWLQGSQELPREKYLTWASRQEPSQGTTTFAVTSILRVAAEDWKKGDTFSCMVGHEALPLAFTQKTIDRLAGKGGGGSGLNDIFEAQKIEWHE
T5 sequence (P51654 other isoform, or with tags, fused parts or gaps limits assumed): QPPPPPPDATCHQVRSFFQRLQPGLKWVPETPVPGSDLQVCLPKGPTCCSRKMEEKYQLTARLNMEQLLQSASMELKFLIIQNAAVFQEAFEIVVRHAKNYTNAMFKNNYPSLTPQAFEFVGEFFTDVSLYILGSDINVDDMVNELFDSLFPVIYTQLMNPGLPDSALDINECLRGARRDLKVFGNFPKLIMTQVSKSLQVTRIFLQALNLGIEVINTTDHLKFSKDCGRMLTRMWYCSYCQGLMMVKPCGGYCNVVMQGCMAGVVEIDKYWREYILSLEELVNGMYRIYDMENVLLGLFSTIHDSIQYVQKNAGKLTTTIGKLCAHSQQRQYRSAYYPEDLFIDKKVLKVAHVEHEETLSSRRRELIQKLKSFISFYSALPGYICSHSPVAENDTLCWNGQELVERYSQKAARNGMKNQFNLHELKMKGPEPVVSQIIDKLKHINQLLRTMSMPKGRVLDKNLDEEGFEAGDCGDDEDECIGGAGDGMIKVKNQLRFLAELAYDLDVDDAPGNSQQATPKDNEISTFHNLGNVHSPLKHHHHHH
T1 sequence (light, as listed by the source): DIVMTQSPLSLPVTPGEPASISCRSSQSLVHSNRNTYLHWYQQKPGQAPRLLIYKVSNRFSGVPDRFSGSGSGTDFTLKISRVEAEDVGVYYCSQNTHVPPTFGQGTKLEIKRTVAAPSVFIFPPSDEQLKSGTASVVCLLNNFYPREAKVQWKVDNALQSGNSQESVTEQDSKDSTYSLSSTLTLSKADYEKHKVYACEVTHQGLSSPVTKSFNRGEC

B1: GA1-IgG1 (antibody, V domains shown)
VH: EVQLVQSGAEVKKPGSSVKVSCKASGGTFSSYAISWVRQAPGQGLEWMGGIIPIFGTANYAQKFQGRVTITADESTSTAYMELSSLRSEDTAVYYCARVAPGNWGSPYFDYWGQGTLVTVSS
VL: DIQMTQSPSSLSASVGDRVTITCRASQSIEDDLAWYQQKPGKAPKLLIYEASSLQSGVPSRFSGSGSGTDFTLTISSLQPEDFATYYCQQRDSSPLTFGQGTKVEIKR
notes: From the Ca library; obtained in step (22-3)
Regarding B1, the binding result in the test with GC-hIgA was “binds”.

B2: HM_4_1_R_001 (antibody, human IgG1, kappa, V domains shown)
VH: EVQLVESGGGLVQPGGSLRLSCAASGFTFSNYEMNWVRQAPGKGLEWISYISSSGRTFSYADSVKGRFTISRDNAKNSLYLQMNSLRAEDTAVYYCARDSGYSDGWYPSWFDSWGQGTLVTVSS
VL: B1 VL with E30N, D31S, D32H, E50H, S53N, R91H, D92S, S94Y, L96Y
notes: From His library 1; also called HM_4_1_R_001 antibody; HM_4_1R_001 antibody
Turning to B2, the binding result (in test [1]; in the test with human HMGB1) was “binds” throughout.

B3: GA2-IgG1 (antibody, V domains shown)
VH: QVQLVQSGAEVKKPGSSVKVSCKASGGTFSSYAISWVRQAPGQGLEWMGGIIPIFGTANYAQKFQGRVTITADESTSTAYMELSSLRSEDTAVYYCARPRWETAISSDAFDIWGQGTMVTVSS
VL: B1 VL with E30S, A34N, S53N, R91H, D92S
notes: From the Ca library; obtained in step (22-4)
With B3, the binding result in test [2] is “binds”.

B4: CSCM-01_023 (antibody, human IgG1, kappa, V domains shown)
VH: QVQLVQSGAEVKKPGASVKVSCKASGYTFTSYGISWVRQAPGQGLEWMGWISAYNGNTNYAQKLQGRVTMTTDTSTSTAYMELRSLRSDDTAVYYCARDSPLLWFGEPFFDYWGQGTLVTVSS
VL: B1 VL with E50H, S53T, R91S, S94Y
notes: Purified IgG in the ELISA of step (24-5)
As for B4, the binding result in test [3] is given as “binds”.

B5: GA3-IgG1 (antibody, V domains shown)
VH: QVQLVQSGAEVKKPGSSVKVSCKASGGTFSSYAISWVRQAPGQGLEWMGGIIPIFGTANYAQKFQGRVTITADESTSTAYMELSSLRSEDTAVYYCARGNGDYLEYFQHWGQGTLVTVSS
VL: B1 VL with E30S, S53N
notes: From the Ca library; obtained in step (22-6)
For B5, the binding result in test [4] was “binds”.
